± gives the standard deviation of the averaged measurements.
Tested on: Saccharomyces cerevisiae
Test: protein stability index of tFT-peptide fusion (C-terminal peptide) (PSI (0-1 scale)); higher = more stable (slower turnover)
Conditions: genetic background: wild type; temperature: 30 C
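Note: PSI is a weighted mean of sequencing reads over stability bins, variants kept only with over 10 reads, mCherry proximal and sfGFP distal, peptide attached via GGGS linker.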

Row | Sequence | protein stability index
1 | KKKKKHTQYKRK | 0.6997 ± 0.0026
2 | LISISNINEGVI | 0.688 ± 0.037
3 | SFLWRRSYFVFR | 0.616 ± 0.017
4 | SPRPSPPPPSHA | 0.636 ± 0.077
5 | SPHPRKTTSHPR | 0.6642 ± 0.0015
6 | AGAWVREVVGWG | 0.707 ± 0.014
7 | LLGSFSLSMSSL | 0.717 ± 0.021
8 | HKEHLDNPRLRP | 0.714 ± 0.012
9 | KRVGLRLCGRLT | 0.704 ± 0.04
10 | WFSSPVTISTRK | 0.692 ± 0.11
11 | GQPGDCWRVCPR | 0.6851 ± 0.0027
12 | FMVVKWSPCAWC | 0.539 ± 0.026
13 | PYEPTIALPLLL | 0.683 ± 0.058
14 | RGEGLRYVQGSR | 0.668 ± 0.042
15 | MGCSARLPLLSS | 0.7215 ± 0.0016
16 | VKVYHVPSTFSV | 0.681 ± 0.029
17 | GAHVAVFRQRGR | 0.678 ± 0.083
18 | IRRRKRKRNQKP | 0.708 ± 0.032
19 | LFALSVHTHPYP | 0.73 ± 0.024
20 | PPVSPPLPPPPH | 0.704 ± 0.03
21 | KKTKEQEGEKTE | 0.679 ± 0.026
22 | HNKTTNGNSHKN | 0.715 ± 0.073
23 | LSPPPPRPTLQF | 0.731 ± 0.0092
24 | PGIVTGCGNTFV | 0.708 ± 0.022

Row | Sequence | protein stability index
25 | LDVCDGVSGVRS | 0.647 ± 0.035
26 | CVREDSRPFPAS | 0.76 ± 0.044
27 | KKGSSKKKKPVE | 0.6581 ± 0.0062
28 | ATVKRAVPPVFR | 0.7 ± 0.041
29 | ARLCLVRTKRHS | 0.684 ± 0.044
30 | PPRPSLLPRALF | 0.642 ± 0.041
31 | FRLKRFSGTGYG | 0.698 ± 0.035
32 | LNPPFICFAWLY | 0.598 ± 0.076
33 | VGAAVFGARWGA | 0.689 ± 0.037
34 | NTTQKKKGGRKA | 0.747 ± 0.15
35 | KKKKKKKKHEQK | 0.678 ± 0.09
36 | PPSASLAPFLSP | 0.722 ± 0.12
37 | VKGYGLILQISV | 0.56537 ± 0.00043
38 | NRGTRQIIIKKK | 0.653 ± 0.038
39 | NLAGLVREYSGY | 0.684 ± 0.011
40 | FYGFHPLALPRP | 0.725 ± 0.035
41 | GWMTGMEERGGG | 0.674 ± 0.053
42 | KDEWVQSHTNQV | 0.671 ± 0.0083
43 | RPRELHNSETVY | 0.683 ± 0.025
44 | HRARWLSLGVTW | 0.655 ± 0.035
45 | LPRAAISRKFAT | 0.63 ± 0.037
46 | ICVTSFSVWGCC | 0.592 ± 0.028
47 | CRGWVRVAGLRA | 0.604 ± 0.085
48 | CVGLIGVINGGL | 0.558 ± 0.0081

Row | Sequence | protein stability index
49 | SSLSPLLYRPLF | 0.742 ± 0.047
50 | NSSKHAWAWPVP | 0.68 ± 0.029
51 | RGGRGLAAGAWW | 0.7035 ± 0.0055
52 | AAARTGIATLRT | 0.691 ± 0.01
53 | PWTAGQGWATIP | 0.688 ± 0.04
54 | PSPLSPEHPLPI | 0.72334 ± 0.00035
55 | PPPLPSPPPRLP | 0.693 ± 0.014
56 | PPPPRSPSLLSP | 0.651 ± 0.059
57 | VGTGPGLKRPCH | 0.774 ± 0.035
58 | SPAPSFLPLTPS | 0.656 ± 0.014
59 | SGSDGLLVGAPG | 0.666 ± 0.047
60 | HWPSPLSPAVPG | 0.804 ± 0.084
61 | SSLAPLLYLDTP | 0.661 ± 0.084
62 | WGREGRVPGWAG | 0.671 ± 0.11
63 | PPPLRFLSFPPS | 0.661 ± 0.057
64 | VTRLTGKLVAEK | 0.576 ± 0.027
65 | SGRGGTGIGERV | 0.6694 ± 0.00092
66 | ENIENGRPKTEP | 0.644 ± 0.012
67 | LEDGDRVYQVTI | 0.655 ± 0.012
68 | CLLPGSSYSFTS | 0.712 ± 0.045
69 | SPGPVTPRPSLR | 0.669 ± 0.019
70 | TISFASLLPPPF | 0.723 ± 0.048
71 | PLWEYGCLFASS | 0.718 ± 0.03
72 | RSFPYLLFPPPS | 0.713 ± 0.046

Row | Sequence | protein stability index
73 | PPPPPPPPPDPA | 0.666 ± 0.013
74 | NHPCPFSELPQL | 0.758 ± 0.11
75 | LPSLSPPPSLPL | 0.763 ± 0.042
76 | RVRWLRGVPGGL | 0.635 ± 0.09
77 | LWGGGVGRVRGV | 0.658 ± 0.022
78 | DTPERKGNLEEH | 0.709 ± 0.053
79 | SYPDYFDSDSSD | 0.716 ± 0.011
80 | ERARGKGAGKAE | 0.688 ± 0.019
81 | SKWGQIKRVAIR | 0.592 ± 0.038
82 | AGGSTGMGARSR | 0.688 ± 0.015
83 | LSDSSDSTLGAI | 0.667 ± 0.029
84 | VGVEIKITKEKK | 0.739 ± 0.038
85 | VRKKRKKELAKV | 0.794 ± 0.086
86 | PPPAPPPLPTSP | 0.771 ± 0.095
87 | RGCGRLDGRRGG | 0.704 ± 0.015
88 | CRGRSGMCNLET | 0.751 ± 0.04
89 | RGVGLGRWGPVV | 0.652 ± 0.0081
90 | GGFPVGLVSGFC | 0.641 ± 0.032
91 | SLLSLSPACLPL | 0.683 ± 0.026
92 | FCNPHVGGIRRA | 0.684 ± 0.05
93 | EETRRKKRTGKK | 0.707 ± 0.0099
94 | APKVICPHLIRL | 0.68 ± 0.013
